The values that follow are results of earlier work, collected in PMC12990809.

Among the targets are U2AF2 (Homo sapiens) (UniProt P26368); SRSF9 (Homo sapiens) (UniProt Q13242); SNRNP70 (Homo sapiens) (UniProt P08621); TARDBP (Homo sapiens) (UniProt Q13148); YBX1 (Homo sapiens) (UniProt P67809); SNRPA (Homo sapiens) (UniProt P09012); YBX2 (Homo sapiens) (UniProt Q9Y2T7); Khdrbs1 (Mus musculus) (UniProt Q60749).
Holding throughout (test): pulldown
Settings in all cases: 20 nM protein, 1.5 uM RNA pool; 20 mM HEPES pH 7.8, 70 mM KCl, 10 mM NaCl, 10% glycerol, 2 mM DTT, 0.1 ug/uL BSA; 30 min, 4 C (protocol of this paper; not …); cited from earlier work

Data set [1] has as its target T1, tra2 (Drosophila melanogaster) (UniProt P19018).
T1 sequence: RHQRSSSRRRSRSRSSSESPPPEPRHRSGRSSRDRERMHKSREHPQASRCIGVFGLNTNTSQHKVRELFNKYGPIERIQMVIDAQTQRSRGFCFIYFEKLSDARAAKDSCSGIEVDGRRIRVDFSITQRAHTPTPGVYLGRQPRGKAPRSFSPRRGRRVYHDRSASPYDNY

Data set [2] deals with T2, sm (Drosophila melanogaster) (UniProt A4UZQ5).
T2 sequence: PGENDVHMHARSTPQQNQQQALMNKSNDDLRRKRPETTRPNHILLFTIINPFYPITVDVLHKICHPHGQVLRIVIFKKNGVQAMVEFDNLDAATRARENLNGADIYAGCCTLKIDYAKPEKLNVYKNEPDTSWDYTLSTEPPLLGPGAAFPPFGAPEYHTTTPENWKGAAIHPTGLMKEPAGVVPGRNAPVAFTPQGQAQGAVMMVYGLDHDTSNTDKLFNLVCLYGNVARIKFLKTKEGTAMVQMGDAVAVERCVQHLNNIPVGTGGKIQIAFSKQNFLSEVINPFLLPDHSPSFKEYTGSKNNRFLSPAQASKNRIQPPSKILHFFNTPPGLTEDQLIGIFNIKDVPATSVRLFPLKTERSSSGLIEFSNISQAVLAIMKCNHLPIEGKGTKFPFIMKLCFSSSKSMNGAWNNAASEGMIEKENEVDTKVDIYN

In data set [3] the target is T3, shep (Drosophila melanogaster) (UniProt Q8MSV2).
T3 sequence: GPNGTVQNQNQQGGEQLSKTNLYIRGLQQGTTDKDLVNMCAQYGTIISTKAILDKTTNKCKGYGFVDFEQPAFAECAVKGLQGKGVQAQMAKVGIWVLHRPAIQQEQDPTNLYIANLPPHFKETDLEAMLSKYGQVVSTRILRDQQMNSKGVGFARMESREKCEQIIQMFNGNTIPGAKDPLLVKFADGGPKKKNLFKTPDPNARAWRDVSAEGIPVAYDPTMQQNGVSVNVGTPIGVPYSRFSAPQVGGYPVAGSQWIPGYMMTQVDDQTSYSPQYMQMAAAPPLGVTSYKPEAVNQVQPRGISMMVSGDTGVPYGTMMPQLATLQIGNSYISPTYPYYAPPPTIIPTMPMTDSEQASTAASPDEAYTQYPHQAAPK

Data set [4] has as its target T4, SF1 (Drosophila melanogaster) (UniProt A9UNA1).
T4 sequence: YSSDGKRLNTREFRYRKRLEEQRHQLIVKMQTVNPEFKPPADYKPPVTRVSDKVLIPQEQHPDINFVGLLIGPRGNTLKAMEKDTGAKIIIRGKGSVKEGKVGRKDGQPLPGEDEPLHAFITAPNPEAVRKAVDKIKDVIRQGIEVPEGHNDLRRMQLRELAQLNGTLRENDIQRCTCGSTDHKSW

The target in data set [5] is T5, VTS1 S437M (Saccharomyces cerevisiae) (UniProt Q08831).
T5 sequence: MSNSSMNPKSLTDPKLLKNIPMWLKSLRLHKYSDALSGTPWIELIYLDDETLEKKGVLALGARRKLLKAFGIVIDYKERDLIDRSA

Another data set concerns the target T6, SRSF7 (Homo sapiens) (UniProt Q16629).
T6 sequence: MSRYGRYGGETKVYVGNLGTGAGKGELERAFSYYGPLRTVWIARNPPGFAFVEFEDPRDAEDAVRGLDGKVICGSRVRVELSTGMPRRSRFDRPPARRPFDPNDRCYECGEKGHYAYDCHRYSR

The next data set deals with T7, TIA1 (Homo sapiens) (UniProt P31483).
T7 sequence: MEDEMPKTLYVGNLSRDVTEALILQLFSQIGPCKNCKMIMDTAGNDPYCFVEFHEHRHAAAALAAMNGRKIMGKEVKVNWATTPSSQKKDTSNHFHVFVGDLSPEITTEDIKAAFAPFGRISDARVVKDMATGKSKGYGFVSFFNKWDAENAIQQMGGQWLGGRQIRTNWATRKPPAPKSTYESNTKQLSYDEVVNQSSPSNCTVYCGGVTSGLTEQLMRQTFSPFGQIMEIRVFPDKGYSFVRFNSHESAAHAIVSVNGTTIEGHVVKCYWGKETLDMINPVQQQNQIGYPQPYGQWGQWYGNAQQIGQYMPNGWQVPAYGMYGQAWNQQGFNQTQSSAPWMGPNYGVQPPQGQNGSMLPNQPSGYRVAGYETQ

The target in the next data set is T8, SART3 (Homo sapiens) (UniProt Q15020).
T8 sequence: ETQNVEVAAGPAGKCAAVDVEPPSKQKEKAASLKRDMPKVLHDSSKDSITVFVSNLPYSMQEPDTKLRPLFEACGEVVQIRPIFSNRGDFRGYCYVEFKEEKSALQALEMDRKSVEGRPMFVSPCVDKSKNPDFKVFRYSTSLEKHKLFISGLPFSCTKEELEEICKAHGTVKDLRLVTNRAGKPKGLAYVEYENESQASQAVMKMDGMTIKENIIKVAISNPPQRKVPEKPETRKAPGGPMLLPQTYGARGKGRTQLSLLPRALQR

The target in data set [6] is T9, Cnot4 (Drosophila melanogaster) (UniProt M9MRH8).
T9 sequence: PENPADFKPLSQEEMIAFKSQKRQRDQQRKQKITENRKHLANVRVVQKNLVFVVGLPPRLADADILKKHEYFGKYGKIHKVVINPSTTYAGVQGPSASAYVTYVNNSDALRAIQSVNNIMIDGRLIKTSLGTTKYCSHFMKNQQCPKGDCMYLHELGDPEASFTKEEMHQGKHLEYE

Data set [7] addresses unc-75 (Caenorhabditis elegans) (UniProt G5EE68).
Data set [8] concerns the target T10, SF2 (Drosophila melanogaster) (UniProt Q7KJ21).
T10 sequence: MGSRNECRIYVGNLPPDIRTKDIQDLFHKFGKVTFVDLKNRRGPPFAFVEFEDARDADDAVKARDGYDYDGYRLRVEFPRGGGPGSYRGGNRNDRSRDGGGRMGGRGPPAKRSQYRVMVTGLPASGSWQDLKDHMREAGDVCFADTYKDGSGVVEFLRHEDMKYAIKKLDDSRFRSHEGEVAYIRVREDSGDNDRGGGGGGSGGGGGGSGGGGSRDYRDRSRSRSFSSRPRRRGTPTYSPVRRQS

Data set [9] has as its target T11, CG14718 (Drosophila melanogaster) (UniProt Q7K543).
T11 sequence: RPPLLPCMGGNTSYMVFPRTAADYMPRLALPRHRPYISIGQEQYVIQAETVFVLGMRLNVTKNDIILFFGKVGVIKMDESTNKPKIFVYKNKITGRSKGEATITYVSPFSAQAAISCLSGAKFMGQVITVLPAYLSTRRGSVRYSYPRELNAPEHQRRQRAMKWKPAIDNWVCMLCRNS

Data set [10] addresses U2af50 (Drosophila melanogaster) (UniProt Q24562).
A further data set concerns the target T12, RBMS3 (Homo sapiens) (UniProt Q6XE24).
T12 sequence: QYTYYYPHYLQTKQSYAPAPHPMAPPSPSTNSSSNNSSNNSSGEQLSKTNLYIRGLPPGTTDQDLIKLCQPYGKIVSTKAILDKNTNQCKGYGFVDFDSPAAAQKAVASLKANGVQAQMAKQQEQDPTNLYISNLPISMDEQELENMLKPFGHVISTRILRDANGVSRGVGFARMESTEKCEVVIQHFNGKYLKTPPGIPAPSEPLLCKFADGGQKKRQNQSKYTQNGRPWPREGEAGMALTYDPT

In data set [11] the target is T13, Rsf1 (Drosophila melanogaster) (UniProt Q24491).
T13 sequence: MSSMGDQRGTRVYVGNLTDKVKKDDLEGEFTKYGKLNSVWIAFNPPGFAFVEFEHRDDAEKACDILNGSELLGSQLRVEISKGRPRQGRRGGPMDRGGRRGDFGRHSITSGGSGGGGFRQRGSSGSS

Data set [12] has as its target T14, mxt (Drosophila melanogaster) (UniProt Q9VR35).
T14 sequence: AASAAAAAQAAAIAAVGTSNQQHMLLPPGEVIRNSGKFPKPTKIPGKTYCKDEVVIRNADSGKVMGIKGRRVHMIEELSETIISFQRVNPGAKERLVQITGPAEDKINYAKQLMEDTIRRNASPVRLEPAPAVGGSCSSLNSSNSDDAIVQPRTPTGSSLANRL

Data set [13] concerns the target T15, Rbp1 (Drosophila melanogaster) (UniProt Q02427).
T15 sequence: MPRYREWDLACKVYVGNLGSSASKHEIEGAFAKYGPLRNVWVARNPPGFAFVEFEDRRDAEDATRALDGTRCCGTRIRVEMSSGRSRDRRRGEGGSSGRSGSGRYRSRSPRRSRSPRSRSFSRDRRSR

The target of the next data set is T16, SAMD4A (Homo sapiens) (UniProt Q9UPU9).
T16 sequence: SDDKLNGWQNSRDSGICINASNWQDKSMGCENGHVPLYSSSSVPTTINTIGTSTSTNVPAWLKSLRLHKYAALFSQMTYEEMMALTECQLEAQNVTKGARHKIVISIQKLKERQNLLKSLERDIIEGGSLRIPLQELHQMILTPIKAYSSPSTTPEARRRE

SRSF9 (Homo sapiens), sequence (Q13242 whole entry): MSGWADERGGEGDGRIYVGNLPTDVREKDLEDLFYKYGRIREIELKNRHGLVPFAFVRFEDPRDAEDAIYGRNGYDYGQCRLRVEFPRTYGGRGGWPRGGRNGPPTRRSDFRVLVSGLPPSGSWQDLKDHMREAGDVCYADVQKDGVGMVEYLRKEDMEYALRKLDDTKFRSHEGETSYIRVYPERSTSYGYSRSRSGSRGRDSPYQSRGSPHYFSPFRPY
U2af50 (Drosophila melanogaster), sequence (Q24562 45-416): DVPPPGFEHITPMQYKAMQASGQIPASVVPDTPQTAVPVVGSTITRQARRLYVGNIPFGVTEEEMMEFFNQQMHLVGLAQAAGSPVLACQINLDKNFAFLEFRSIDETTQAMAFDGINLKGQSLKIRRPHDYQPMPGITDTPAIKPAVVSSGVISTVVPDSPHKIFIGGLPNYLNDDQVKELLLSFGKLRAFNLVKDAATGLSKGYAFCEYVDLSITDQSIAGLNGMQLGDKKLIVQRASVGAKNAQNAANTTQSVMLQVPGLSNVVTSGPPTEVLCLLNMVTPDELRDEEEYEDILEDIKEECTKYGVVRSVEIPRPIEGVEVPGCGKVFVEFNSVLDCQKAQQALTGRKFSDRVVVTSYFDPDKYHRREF
U2AF2 (Homo sapiens), sequence (P26368 101-475): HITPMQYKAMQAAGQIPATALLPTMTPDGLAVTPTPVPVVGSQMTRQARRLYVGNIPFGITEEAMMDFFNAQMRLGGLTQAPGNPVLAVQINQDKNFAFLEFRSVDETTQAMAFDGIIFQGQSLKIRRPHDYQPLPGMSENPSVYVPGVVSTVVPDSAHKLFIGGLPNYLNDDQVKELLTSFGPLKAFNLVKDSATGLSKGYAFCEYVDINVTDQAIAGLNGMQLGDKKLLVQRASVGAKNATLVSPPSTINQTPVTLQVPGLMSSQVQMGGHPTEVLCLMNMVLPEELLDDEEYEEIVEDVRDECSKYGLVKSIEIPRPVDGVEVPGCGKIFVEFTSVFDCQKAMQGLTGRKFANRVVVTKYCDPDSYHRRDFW
Khdrbs1 (Mus musculus), sequence (Q60749 3-443): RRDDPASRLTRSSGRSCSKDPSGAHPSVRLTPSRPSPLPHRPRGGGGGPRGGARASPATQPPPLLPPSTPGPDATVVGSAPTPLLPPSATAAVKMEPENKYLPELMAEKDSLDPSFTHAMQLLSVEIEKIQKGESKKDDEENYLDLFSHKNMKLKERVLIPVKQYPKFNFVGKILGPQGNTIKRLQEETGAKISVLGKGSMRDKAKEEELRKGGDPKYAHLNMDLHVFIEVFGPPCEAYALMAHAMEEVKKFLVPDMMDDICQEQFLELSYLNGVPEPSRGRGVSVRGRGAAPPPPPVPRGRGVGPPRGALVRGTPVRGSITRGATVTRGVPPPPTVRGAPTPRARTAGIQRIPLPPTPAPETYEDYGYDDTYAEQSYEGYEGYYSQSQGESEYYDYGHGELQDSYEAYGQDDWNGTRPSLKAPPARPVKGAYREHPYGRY
YBX2 (Homo sapiens), sequence (Q9Y2T7 whole entry): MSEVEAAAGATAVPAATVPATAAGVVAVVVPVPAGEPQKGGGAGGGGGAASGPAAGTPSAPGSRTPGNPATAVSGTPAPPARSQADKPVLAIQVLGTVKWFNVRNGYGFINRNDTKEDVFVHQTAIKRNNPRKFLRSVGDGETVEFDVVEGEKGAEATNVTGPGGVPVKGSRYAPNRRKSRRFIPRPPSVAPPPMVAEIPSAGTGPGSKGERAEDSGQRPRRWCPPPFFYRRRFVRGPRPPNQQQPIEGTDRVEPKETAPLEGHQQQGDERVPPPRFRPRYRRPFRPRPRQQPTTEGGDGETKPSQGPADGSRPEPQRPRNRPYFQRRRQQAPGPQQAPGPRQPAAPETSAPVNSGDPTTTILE
SNRNP70 (Homo sapiens), sequence (P08621 55-225): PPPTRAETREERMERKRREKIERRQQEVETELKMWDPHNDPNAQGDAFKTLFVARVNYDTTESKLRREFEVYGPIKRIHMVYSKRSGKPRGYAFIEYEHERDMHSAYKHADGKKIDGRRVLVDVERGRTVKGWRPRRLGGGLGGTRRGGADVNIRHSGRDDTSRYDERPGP
YBX1 (Homo sapiens), sequence (P67809 whole entry): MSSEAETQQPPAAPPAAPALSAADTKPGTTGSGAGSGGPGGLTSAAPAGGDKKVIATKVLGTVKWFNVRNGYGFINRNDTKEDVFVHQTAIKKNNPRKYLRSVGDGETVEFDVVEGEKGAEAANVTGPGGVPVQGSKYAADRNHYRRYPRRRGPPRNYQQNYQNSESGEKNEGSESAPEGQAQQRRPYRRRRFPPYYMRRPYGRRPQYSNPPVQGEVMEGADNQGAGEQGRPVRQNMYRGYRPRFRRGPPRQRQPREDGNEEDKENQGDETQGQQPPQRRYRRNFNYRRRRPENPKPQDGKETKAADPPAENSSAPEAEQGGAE
SNRPA (Homo sapiens), sequence (P09012 whole entry): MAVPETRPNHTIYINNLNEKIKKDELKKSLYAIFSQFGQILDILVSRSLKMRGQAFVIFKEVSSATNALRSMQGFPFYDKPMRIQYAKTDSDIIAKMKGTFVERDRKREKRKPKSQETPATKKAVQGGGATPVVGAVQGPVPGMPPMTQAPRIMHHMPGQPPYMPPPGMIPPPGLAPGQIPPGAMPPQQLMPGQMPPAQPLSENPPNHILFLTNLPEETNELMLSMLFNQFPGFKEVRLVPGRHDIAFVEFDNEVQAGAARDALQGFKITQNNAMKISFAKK
TARDBP (Homo sapiens), sequence (Q13148 56-315): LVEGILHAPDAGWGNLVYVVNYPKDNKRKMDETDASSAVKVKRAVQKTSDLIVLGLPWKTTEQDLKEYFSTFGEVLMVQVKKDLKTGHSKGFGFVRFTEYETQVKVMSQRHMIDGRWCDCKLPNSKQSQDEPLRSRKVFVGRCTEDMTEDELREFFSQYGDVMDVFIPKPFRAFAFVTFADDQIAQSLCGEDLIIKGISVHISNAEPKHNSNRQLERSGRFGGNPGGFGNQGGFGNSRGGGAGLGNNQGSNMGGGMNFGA

Regarding AGAAGA [RNAcompete motif RNCMPT00078], the binding signal (z-score (mean of top ten 7-mers)) in data set [1] was 7.09.
As for UUUUUCC [RNAcompete motif RNCMPT00079], the binding signal (z-score (mean of top ten 7-mers)) with U2AF2 (Homo sapiens) was 17.
In the case of AGACAC [RNAcompete motif RNCMPT00069], in [2], the binding signal (z-score (mean of top ten 7-mers)) was 11.2.
As for UAUAUUA [RNAcompete motif RNCMPT00175], in data set [3], the binding signal (z-score (mean of top ten 7-mers)) is 7.37.
As to AUGGA [RNAcompete motif RNCMPT00067], in the data set with SRSF9 (Homo sapiens), the binding signal (z-score (mean of top ten 7-mers)) was 6.71.
Regarding AUCAAG [RNAcompete motif RNCMPT00070], in the data set with SNRNP70 (Homo sapiens), the binding signal (z-score (mean of top ten 7-mers)) was 8.16.
As for UCUNAU [RNAcompete motif RNCMPT00065], the binding signal (z-score (mean of top ten 7-mers)) in [4] is 9.28.
On to GCUGGCC [RNAcompete motif RNCMPT00111], for which the binding signal (z-score (mean of top ten 7-mers)) in [5] is 24.3.
On to GACGACG [RNAcompete motif RNCMPT00073], for which, in the data set with SRSF7 (Homo sapiens), the binding signal (z-score (mean of top ten 7-mers)) is 11.3.
In the case of UUUUUU [RNAcompete motif RNCMPT00165], the binding signal (z-score (mean of top ten 7-mers)) with TIA1 (Homo sapiens) was 9.41.
GAAAAA [RNAcompete motif RNCMPT00064]: in the data set with SART3 (Homo sapiens), the binding signal (z-score (mean of top ten 7-mers)) was 11.1.
As for GAAUGA [RNAcompete motif RNCMPT00076], the binding signal (z-score (mean of top ten 7-mers)) with TARDBP (Homo sapiens) is 9.33.
As to AGACACA [RNAcompete motif RNCMPT00008], the binding signal (z-score (mean of top ten 7-mers)) in data set [6] is 12.4.
Regarding UGUUGUG [RNAcompete motif RNCMPT00081], in data set [7], the binding signal (z-score (mean of top ten 7-mers)) was 10.4.
As to GGAGGA [RNAcompete motif RNCMPT00066], the binding signal (z-score (mean of top ten 7-mers)) in [8] is 14.1.
With CCAGAUG [RNAcompete motif RNCMPT00006], the binding signal (z-score (mean of top ten 7-mers)) in data set [9] is 11.9.
For the substance UUUUUCC [RNAcompete motif RNCMPT00080], in data set [10], the binding signal (z-score (mean of top ten 7-mers)) is 12.8.
With UAUAUA [RNAcompete motif RNCMPT00173], in the data set with RBMS3 (Homo sapiens), the binding signal (z-score (mean of top ten 7-mers)) is 8.57.
For the substance ACGACGA [RNAcompete motif RNCMPT00061], the binding signal (z-score (mean of top ten 7-mers)) in data set [11] was 10.6.
For CAACGA [RNAcompete motif RNCMPT00007], the binding signal (z-score (mean of top ten 7-mers)) in data set [12] was 13.9.
Regarding AACAUC [RNAcompete motif RNCMPT00083], the binding signal (z-score (mean of top ten 7-mers)) in the data set with YBX1 (Homo sapiens) is 14.5.
Regarding ACAACG [RNAcompete motif RNCMPT00058], the binding signal (z-score (mean of top ten 7-mers)) in data set [13] was 9.03.
As to GCUGGNC [RNAcompete motif RNCMPT00063], the binding signal (z-score (mean of top ten 7-mers)) with SAMD4A (Homo sapiens) was 15.9.
UUGCACA [RNAcompete motif RNCMPT00071]: the binding signal (z-score (mean of top ten 7-mers)) with SNRPA (Homo sapiens) is 10.9.
As to AACANC [RNAcompete motif RNCMPT00084], the binding signal (z-score (mean of top ten 7-mers)) with YBX2 (Homo sapiens) was 9.95.
For the substance UAAAAG [RNAcompete motif RNCMPT00062], the binding signal (z-score (mean of top ten 7-mers)) in the data set with Khdrbs1 (Mus musculus) is 7.39.
